Measurements reported in patent publication US20180057596A1 (AstraZeneca / MedImmune, published 2018).
Values joined by “and” are separate entries in the source; they are usually repeats but may differ in a detail not shown here. Identical values can stand only once.

What was measured:
[1] = target: T1, cynomolgus IL-4Rα HIS FLAG (cynomolgus); assay: SPR (BIAcore 2000), IgG captured on Protein G', receptor as analyte, 1:1 Langmuir
T1 construct: also called Cyno IL4Rα HIS FLAG; not shown: HIS and FLAG tags and any vector-encoded linker of the cynomolgus HIS FLAG construct
T1 chain: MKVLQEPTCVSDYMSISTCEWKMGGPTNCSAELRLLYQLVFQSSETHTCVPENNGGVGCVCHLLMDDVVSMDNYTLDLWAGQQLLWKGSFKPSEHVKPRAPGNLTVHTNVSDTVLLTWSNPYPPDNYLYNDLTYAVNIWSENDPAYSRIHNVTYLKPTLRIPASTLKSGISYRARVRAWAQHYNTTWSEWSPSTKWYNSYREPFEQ
Method: (§1) In brief, Protein G′ (Sigma Aldrich, P4689) was covalently coupled to the surface of a CM5 sensor chip using standard amine coupling reagents according to manufacturer's instructions (BIAcore). This Protein G′ surface was used to capture a constant amount of purified anti-IL4R• antibodies or isotype control via the Fc domain. Human or cynomolgus IL-4R• HIS FLAG prepared in HBS-EP buffer (BIAcore AB), at a range of concentrations, between 100 nM and 0.2 nM, were passed over the sensor chip surface. […] The resulting sensorgrams were evaluated using BIA evaluation 4.1 software and fitted to 1:1 Langmuir binding model, to provide the relative binding data. The experiments were performed over the course of at least three separate days to calculate an average monovalent affinity.

[2] = target: T2, human IL-4Rα HIS FLAG (in house HEK-EBNA derived) (human, biotinylated where used as the labelled partner in the DELFIA assay); assay: as above
T2 construct: also called HuIL-4Rα; Human IL4-Rα/FLAG/HIS tag
T2 chain: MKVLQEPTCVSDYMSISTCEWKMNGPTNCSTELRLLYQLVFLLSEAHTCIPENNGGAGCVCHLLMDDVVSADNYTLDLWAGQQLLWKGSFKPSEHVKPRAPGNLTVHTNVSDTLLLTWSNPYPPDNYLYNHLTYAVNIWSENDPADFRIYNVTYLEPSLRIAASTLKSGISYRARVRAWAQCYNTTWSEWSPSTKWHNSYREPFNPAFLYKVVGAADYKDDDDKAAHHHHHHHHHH
Method: as §1

[3] = target: T3, murine IL4Rα Fc (R & D Systems 530-MR-100) (murine, UniProt P16382 26-233, limits assumed); assay: DELFIA epitope competition, no inhibition of biotinylated human IL-4Rα HIS FLAG binding to immobilised IgG
T3 construct: bought protein; not shown: Fc part of the bought fusion
T3 sequence (looked up): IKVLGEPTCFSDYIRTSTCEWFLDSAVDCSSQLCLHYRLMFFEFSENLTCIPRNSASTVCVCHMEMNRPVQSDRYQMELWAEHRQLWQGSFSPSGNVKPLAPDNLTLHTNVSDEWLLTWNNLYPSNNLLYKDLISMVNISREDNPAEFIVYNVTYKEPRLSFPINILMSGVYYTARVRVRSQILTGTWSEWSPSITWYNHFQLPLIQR
Method: (§2) Titrations of IL-4R• species including cynomolgus IL-4R• HIS Fc (in house HEK-EBNA derived), human IL-4R• 175V Fc (AstraZeneca), human IL-4R• Fc and murine IL-4R• (both R & D Systems) were tested in each assay to establish the species cross-reactivity of the antibodies. Unbiotinylated human IL-4R• HIS FLAG was used as a positive control. Human and cynomolgus IL-4R• HIS Fc, along with Human IL-4R• 175V Fc, produced overlapping inhibition curves with […] IC₅₀ values. […] Details of the protocol are provided in the Materials and Methods section 4.6.1.
(§3) Purified IgG were adsorbed onto 96-well Maxisorp microtitre plates (Nunc) in PBS at a concentration which gave a significant signal when biotinylated human IL-4R• HIS FLAG was added at approximately its estimated KD for that particular IgG. Excess IgG was washed away with PBS-Tween (0. 1% v/v) and the wells were blocked with PBS-Marvel (3% w/v) for 1 h. […] Unbiotinylated human IL-4R• HIS FLAG was used as a positive control. […] These mixtures were then transferred onto the blocked IgG and allowed to equilibrate for 1.5 h. Unbound antigen was removed by washing with PBS-Tween (0.1% v/v), while the remaining biotinylated human IL-4R• was detected by streptavidin-Europium3+ conjugate (DELFIA• detection, PerkinElmer).

[4] = target: T4, human IL-13Rα2 Fc (R & D Systems, 614-IR-100) (human, UniProt Q14627 27-343, limits assumed); assay: as above
T4 construct: bought protein; not shown: Fc part of the bought fusion
T4 sequence (looked up): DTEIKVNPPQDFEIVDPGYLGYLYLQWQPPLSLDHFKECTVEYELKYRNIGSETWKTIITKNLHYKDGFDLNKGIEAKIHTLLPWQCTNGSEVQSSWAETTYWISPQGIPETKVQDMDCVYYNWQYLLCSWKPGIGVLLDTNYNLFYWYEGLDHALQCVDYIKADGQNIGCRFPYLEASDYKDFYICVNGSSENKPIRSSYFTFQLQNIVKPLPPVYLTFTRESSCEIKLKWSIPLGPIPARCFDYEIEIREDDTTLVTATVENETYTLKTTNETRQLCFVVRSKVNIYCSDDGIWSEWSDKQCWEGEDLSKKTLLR
Method: as §2, §3

[5] = target: T5, human IL-13Rα1 Fc (R & D Systems, 146-IR-100) (human, UniProt P78552 27-343, limits assumed); assay: as above
T5 construct: bought protein; not shown: Fc part of the bought fusion
T5 sequence (looked up): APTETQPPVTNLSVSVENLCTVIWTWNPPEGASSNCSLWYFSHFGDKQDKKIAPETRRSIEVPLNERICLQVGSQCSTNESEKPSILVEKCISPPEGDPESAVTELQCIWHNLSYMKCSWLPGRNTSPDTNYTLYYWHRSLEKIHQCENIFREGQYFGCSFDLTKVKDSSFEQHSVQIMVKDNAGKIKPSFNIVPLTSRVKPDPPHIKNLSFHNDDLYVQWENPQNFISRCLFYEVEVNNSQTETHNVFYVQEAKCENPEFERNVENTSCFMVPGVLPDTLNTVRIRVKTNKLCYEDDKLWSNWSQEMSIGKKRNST
Method: as §2, §3

[6] = target: T6, Human common gamma chain (sIL-2Rγ) (R & D Systems 384-RG-050-CF) (human, UniProt P31785 23-254); assay: as above
T6 construct: bought protein; also called common gamma chain (IL-2Rγ)
T6 sequence (looked up): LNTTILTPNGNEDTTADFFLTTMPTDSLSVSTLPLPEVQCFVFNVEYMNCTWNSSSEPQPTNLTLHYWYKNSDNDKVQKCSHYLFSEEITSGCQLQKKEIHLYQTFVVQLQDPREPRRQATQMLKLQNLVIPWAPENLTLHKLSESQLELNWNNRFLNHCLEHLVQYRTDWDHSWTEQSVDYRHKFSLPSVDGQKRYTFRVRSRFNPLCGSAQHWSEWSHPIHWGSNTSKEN
Method: as §2, §3

[7] = target: T1, cynomolgus IL-4Rα HIS FLAG; assay: SPR (BIAcore 2000), value in parentheses under the mean, taken as a single determination
Method: as §1

[8] = target: T2, human IL-4Rα HIS FLAG (in house …); assay: as above
Method: as §1

B1: Antibody 37GL IgG (antibody, V domains shown)
VH: QVQLVQSGAEVKKPGASVKVSCKASGYAFTSYYMHWVRQAPGQGLEWMGIINPRGGSTSYAQKFQGRVTMTRDTSTSTVYMELSSLRSEDTAVYYCARGKYWMYDWGKGTLVTVSS
VL: QSVLTQPPSVSAAPGQKVTISCSGGGSSIGNSYVSWYQQLPGTAPKLLIYDNNKRPSGIPDRFSGSKSGTSATLGITGLQTGDEADYYCGTWDTSPVWEWPFGTGTKLTVL
notes: germlined IgG; also called Antibody 37 (FGL)
[1]
  Kd: 4.41 nM
  koff: 0.00108 s⁻¹
  kon: 244000 M⁻¹ s⁻¹
[2]
  Kd: 0.504 nM
  koff: 0.000346 s⁻¹
  kon: 688000 M⁻¹ s⁻¹
[3]
  binding result: no binding
[4]
  binding result: no binding
[5]
  binding result: no binding
[6]
  binding result: no binding
[7]
  Kd: 4.67 nM and 4.34 nM and 4.41 nM
[8]
  Kd: 0.533 nM and 0.531 nM and 0.459 nM
